Reference: paper PMC5430869, “Structure-function analysis of the DNA-binding domain of a transmembrane transcriptional activator”

Key:
Settings in all cases: protein: recombinant; tags: His6-thioredoxin removed by TEV; blunt
CadC1-159 WT [1] = target: T1, CadC1-159 WT (Escherichia coli, UniProt P23890 1-159); test: SPR; steady state; EMSA/NMR/ITC: 20 mM BisTris, 150 mM NaCl, pH 6.5, RT (NMR 10% D2O, 298 K; imino spectra 283 K); SPR: 10 mM HEPES pH 7.4, 150 mM NaCl, 3 mM EDTA, 0.05% P20, 25 C
T1 sequence: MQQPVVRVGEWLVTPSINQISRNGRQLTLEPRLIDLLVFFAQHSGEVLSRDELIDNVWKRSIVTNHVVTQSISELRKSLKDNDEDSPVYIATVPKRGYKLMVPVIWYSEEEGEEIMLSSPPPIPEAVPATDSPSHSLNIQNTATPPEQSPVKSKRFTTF

CadC1-159 E30R = target: T2, CadC1-159 E30R (Escherichia coli, UniProt P23890 1-159, E30R); test: SPR; almost 30-fold; EMSA/NMR/ITC: 20 mM BisTris, 150 mM NaCl, pH 6.5, RT (NMR 10% D2O, 298 K; imino spectra 283 K); SPR: 10 mM HEPES pH 7.4, 150 mM NaCl, 3 mM EDTA, 0.05% P20, 25 C
T2 sequence: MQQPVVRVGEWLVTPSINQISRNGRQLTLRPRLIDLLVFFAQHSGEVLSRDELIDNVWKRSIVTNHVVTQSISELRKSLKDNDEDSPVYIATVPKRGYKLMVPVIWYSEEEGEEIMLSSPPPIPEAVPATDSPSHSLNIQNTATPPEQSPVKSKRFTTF

CadC1-107 (DBD) [2] = target: T3, CadC1-107 (DBD) (Escherichia coli, UniProt P23890 1-107); test: NMR; smaller imino CSPs, line broadening; EMSA/NMR/ITC: 20 mM BisTris, 150 mM NaCl, pH 6.5, RT (NMR 10% D2O, 298 K; imino spectra 283 K); SPR: 10 mM HEPES pH 7.4, 150 mM NaCl, 3 mM EDTA, 0.05% P20, 25 C
T3 sequence: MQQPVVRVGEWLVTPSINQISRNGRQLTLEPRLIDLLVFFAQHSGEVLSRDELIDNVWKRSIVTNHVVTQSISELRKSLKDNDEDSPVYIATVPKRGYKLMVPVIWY

CadC1-107 (DBD) [3] = target: T3, CadC1-107 (DBD); test: NMR titration; 1:1 model; EMSA/NMR/ITC: 20 mM BisTris, 150 mM NaCl, pH 6.5, RT (NMR 10% D2O, 298 K; imino spectra 283 K); SPR: 10 mM HEPES pH 7.4, 150 mM NaCl, 3 mM EDTA, 0.05% P20, 25 C
CadC1-107 (DBD) [4] = target: T3, CadC1-107 (DBD); test: NMR; EMSA/NMR/ITC: 20 mM BisTris, 150 mM NaCl, pH 6.5, RT (NMR 10% D2O, 298 K; imino spectra 283 K); SPR: 10 mM HEPES pH 7.4, 150 mM NaCl, 3 mM EDTA, 0.05% P20, 25 C
CadC1-107 (DBD) [5] = target: T3, CadC1-107 (DBD); test: EMSA; identical to 41-mer; value only in figure; EMSA/NMR/ITC: 20 mM BisTris, 150 mM NaCl, pH 6.5, RT (NMR 10% D2O, 298 K; imino spectra 283 K); SPR: 10 mM HEPES pH 7.4, 150 mM NaCl, 3 mM EDTA, 0.05% P20, 25 C
CadC1-159 WT [6] = target: T1, CadC1-159 WT; test: SPR; steady state; construct called CadC DBD in legend, CadC1-159 in Methods; EMSA/NMR/ITC: 20 mM BisTris, 150 mM NaCl, pH 6.5, RT (NMR 10% D2O, 298 K; imino spectra 283 K); SPR: 10 mM HEPES pH 7.4, 150 mM NaCl, 3 mM EDTA, 0.05% P20, 25 C

B1: Cad1 41-mer, biotinylated (SPR) (dsDNA)
DNA 1: TTGTAAACATTAAATGTTTATCTTTTCATGATATCAACTTG
DNA 2: CAAGTTGATATCATGAAAAGATAAACATTTAATGTTTACAA
- Kd (CadC1-159 WT [1]): 0.38 µM
- binding signal (CadC1-159 E30R): ~30 fold increased affinity vs WT

B2: Cad1C 13-mer (dsDNA)
DNA 1: TGATATCAACTTG
DNA 2: CAAGTTGATATCA
- binding result (CadC1-107 (DBD) [2]): binds

B3: Cad1 17-mer (dsDNA)
DNA 1: TAAACATTAAATGTTTA
DNA 2: TAAACATTTAATGTTTA
- Kd (CadC1-107 (DBD) [3]): 67 ± 16 µM

B4: Cad1A 14-mer (dsDNA)
DNA 1: GTAAACATTAAATG
DNA 2: CATTTAATGTTTAC
- binding result (CadC1-107 (DBD) [4]): binds

B5: Cad1AB 26-mer (dsDNA)
DNA 1: GTAAACATTAAATGTTTATCTTTTCA
DNA 2: TGAAAAGATAAACATTTAATGTTTAC
- binding result (CadC1-107 (DBD) [5]): binds

B6: Cad1B 13-mer (dsDNA)
DNA 1: GTTTATCTTTTCA
DNA 2: TGAAAAGATAAAC
- binding result (CadC1-107 (DBD) [4]): binds

B7: Cad1 17-mer, biotinylated (SPR) (dsDNA)
DNA 1: TAAACATTAAATGTTTA
DNA 2: TAAACATTTAATGTTTA
- Kd (CadC1-159 WT [6]): 23 µM
